The source of these data is a protein production outcome set (Wang et al. 2014).
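Further: failed if final PepcDB status was selected cloned or expressed and not failed if soluble or beyond.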

This data set can be described thus: label from the status in PepcDB records.
Consider “MADIIGLLLPFFGLIFIGYGAARITKQPVEAMGWLNTFIIYAALPALFFKLVSKTPVEELARMDFVAASLACTYGIFLAVFLIGRFVRRNSLAETTIQSFAASYGNIGYMGPGLALLALGEKAAVPVALIVCLENAAHFIVAPAMMAVAGGDKRSAGKLALDVARKVITHPFIVSVIAGFLAASLSWQPPEAVQRLVDYLAQSAAPCALFAMGVTLALRPMKRVPVEISYIVPAKLILHPLAAYLVLSSLGRFEPVWIYSAVLLAALPTATNVFVIGQQYHVWQERASATILISTVLSVFTLTGVVYFIQPF”, for which the protein production result was “failed”. For the sequence “MADIPKSPTEPNKPVDTKLQVDPNTPVDPKPPVVEPKPPVVDPKPPVVDPKPPEPTHPTITVSPKTGDILVEWYAGNGKYYSSVFFNDFYTSQKELDENALNNLTNYYSKKEDWTLVSQLNTPSKSKSVAEHKLALDNVEQILTSGEYSNERALFYLRNQMNVLNESVTTQEELQRYLSENKKDYIKSVAEKVYQTATEEKREWSNTGDVASLEQALSKFYLVTSVFESVDPALV”, the protein production entry is “failed”. Regarding “MADKEKKKKESILDLSKYIDKTIRVKFQGGREASGILKGFDPLLNLVLDGTIEYMRDPDDQYKLTEDTRQLGLVVCRGTSVVLICPQDGMEAIPNPFIQQQDA”, the protein production result is on record as “failed”. On to “MADKQPAVNRVVAALLVGGALIAAGYAIRHTVSCFLLSFVTAYLLDPVLVVMERRGVRRPWGILFLYALLAVFSVFFFIVLVPFLSLRWEAFITGLPAYLQKGKQIVFAWKSRAVPPYAVEEWRWLFDTAAGQADKLLAKLGAGVYAAAEGLVFNLFNLVLAPILVFFMLWYKKEFMETAAAWLPASRREVLLALGREVNESIGGYIRGQFMVSVIVAVLSTVALFVIGIDYPIVNGIFAGLASVLPFIGVILATLPPLFFAYVQYESGMVLLQVIGAFSVIYFLEGYLVKPLVFKESMDLNPLVTIIVVMVFGELMGFWGILLAIPIAAAVRAAADHLRRGDFRS”, for which the protein production result is recorded as “failed”. With “MADLTHEFWDRLEDVRSGMLGIKGQGRLIPMSPQTDDDAPGAIWFITAKGTDLAKGVAAGPQPAQFVVSDDGEGLYADLDGTLERSTDREALDEFWSFVADAWFDGGQHDPDVCLLKFTPASGEISITEGGGARFLYEIAKAHLTDETPDMGEQATVTF”, the protein production entry is recorded as “not failed”. For the sequence “MADNINESEIIERLNSAPSVRGFFIATVDVFNESIDGLIQRIFRKDNFAVQSVVGPLLQDSGPLGDLSVRLKLLFGLGVLPDDIYHDIEDIIKLKNHLNSDASDYEFTDPNILEPIKKLHLVKKMGMVQLEVNEPDDDIDLEFYQLQLQRQQQIIKSGLSLAIVEICNELGK”, the protein production result is “not failed”. The same measure for “MADNKVNLSINGQSKVPPGFRFHPTEEELLHYYLRKKVNSQKIDLDVIREVDLNKLEPWDIQEECRIGSTPQNDWYFFSHKDKKYPTGTRTNRATVAGFWKATGRDKIICSCVRRIGLRKTLVFYKGRAPHGQKSDWIMHEYRLDDTPMSNGYADVVTEDPMSYNEEGWVVCRVFRKKNYQKIDDCPKITLSSLPDDTEEEKGPTFHNTQNVTGLDHVLLYMDRTGSNICMPESQTTTQHQDDVLFMQLPSLETPKSESPVDQSFLTPSKLDFSPVQEKITERPVCSNWASLDRLVAWQLNNGHHNPCHRKSFDEEEENGDTMMQRWDLHWNNDDNVDLWSSFTESSSSLDPLLHLSV”: “failed”; for “MADNTNVTRRSFLTATGAAAGSVALVGVSAGESDDPWNSDRSEYIVGVSNVEDDPQQHVEQYLQGQEQVGSVQERLNTAVVGLPADAPESVRKQFVDRLESRDTIKYVEQNVELQAQLVPNDPRFGDQYADQQVNAPEAWDTTTGDAGVTIGVVDQGVKYDHPDLDGNIDRSVSNGGRDFVDDDGDPYPDSLNEEIHGTHVAGIAAAEVNNGNGVTGIGNSSVIAGRALSERGSGSTADIADAITWAANEGADVINLSLGGGGYTNTMQNAVTYAANQGALVVAAAGNDGSGSVSYPAAYGGVLAVSALDPDESLASYSNYGPKIDLAAPGTNVLSTWTADDYESISGTSMATPVVAGVAGLTLAQWELSNAELRNHLKATAVDIGLSDRQQGAGRVDAANAVNTDPGSGGGGGGGGGGDSTSSSVSGSLRGRGDSNCWSFSYEYSNPSQVVIELDGPGNADFDLYANTSTNACPTTSSYEFRSWTTGSQESITIDNPDTSVDLNVLAYAYSGRGDLTVTVTEYK”: “failed”; for “MADPRTDNRNRKIPDAQVDAIKVPPHSLEAEQSVIGGLLLDNERWDTVSEHVMTQDFYSRPHRLIFDGVKSILEAGKPLDLITLSEYLEQREQLEDVGGFAYLADLAKNTPSAANINAYAEIVAERALVRNLIGVANEIADAGYDPQGRNAEDLLDLAESKVFAIAEARTSENEGPKNVDSILERTLERIELLYKTPQDGVTGVNTGFTDLNKKTAGLQGSDLIIVAARPSMGKTTFAMNLCENAAMEQDKPVLIFSLEMPAEQIMMRMLASLSRVDQTKIRTGQLDDEDWARISSTMGILMEKKNMYIDDSSGLTPTEVRSRARRIAREHGGLSLIMVDYLQLMRVPALTDNRTLEIAEISRSLKALAKELNVPVVALSQLNRSLEQRADKRPVNSDLRESGSIEQDADLIMFIYRDEVYHPDSPLKGTAEIIIGKQRNGPIGSVRLTFQGHYSRFDNYAGPAFDDE”: “not failed”. The same measure for “MADPTSSERLLVTAALPYANGPIHIGHLAGAYLPADLFVRYQRLKGEDVAFICGSDEMGVAILMRAIREDRTPEDIIDTYHPQIRDNFERFGMSFDYYGRTSSETHTETTQDFFRVLDENGGFDLKTDEQLYDPEAEMFLADRFVIGTCPVCGFEEAYGDQCEQCGSSLSPTELENPQSTLTDATPEFKETTHWYLPLGELQPQLEEWIGSHPEWKNNVVGQIQSWFDEGLKGRAITRDVLWGVPVPDDVAERHGLEAEGKVIYVWFDAPIGYISATKEWAAEQGEPDAWTDYWQDEDTRLVHFIGKDNIVFHCLMFPSMLMEHGDYVLPDNVPANEFLNLEGEKLSTSRGWAVWLHEYLDDFADERHAPDLLRYALATTLPETKDADFSWEGFQQRVNGELANVFGNFVHRTLTFAQRYFDGTVPPLEDPSEADRVMLDRMAEVPDTVGAAYEEHRTRDAVFETMALARRGNKYFNDTEPWHTHESDPQACANTIHVSLQVCAALSILFEPVLPSAAATLRERIGLENVRTSTPDDDPAGAVGWEDAGAPLLPAGHPIPSGPDPEPLFQKIDDDTIEAQIEKLRDRAAERDTDPSSTTDMDYEALSDNISFDDFTQLDLRAGTVTTAEPVPDADKLLRLEVDLGFEERQILAGVAEQMAPDDVVGLEVVVVANMAPKEMFGFESQGMVLMAEEPDGTFVPVTTEAEDGSVVR”: “failed”; for “MADRPIEIVDRQNVLTVHLPGTYTVMYDARYCYVSYIPVSETVAEFTLTGFKYPLTNCHISRGSTLCISNELIQSSGTFSFSEGILMMIRSSDSLEHHHHHH”: “failed”; for “MADRQLLHTAHIPVRWGDMDSYGHVNNTLYFQYLEEARVAWFETLGIDLEGAAEGPVVLQSLHTYLKPVVHPATVVVELYAGRLGTSSLVLEHRLHTLEDPQGTYGEGHCKLVWVRHAENRSTPVPDSIRAAIA”: “not failed”. As to “MADSDSNEVLIEEIDSNDVPENELEQFQETEPLRVVDIIDCDTDGERRCIADDEEEGALIKRYVQGVQCLEFPDFCTKLEASDEDEEGNDEEPSEAAGSIEKPNTSAQAKTSQEQSTGSGRSGGGGFRKSQLSTALQGLMGEANLSFVYGRYETAERICMEIIRQNPLASEPFYTLAEIYENRDEVKFLNFSTLAAHLNPQDRDMWIRVSDLLVQQGNLARARLIYTKAIKMLPKVYQLRLRKAQLLQKMGETNASMFTYLKMLPLMPPDEWKMCLNTAKNVARYFHVLEKHSLALEAMEGAYSVCGARFTLEDINIYLELLILNKQYAKVLRCLRERTNFELENDQEESLELIYFCEIPDDYVPELRAKLCVSLIHMRAHHLLGYLIQNVQEHITLTADRVELYMDITEALMQEHKYAEAIALMSPITDGDTVECPAFVWLRQAECLRQLNRTNEAIQSYEKVVQLAPFCYDARFTLSALLKQQGRHEEAVQALEQPGEAEGQPLIARLLYERCVMLQQIGRIEEFLDVGYALLSRHSIKLYNREEMMAAANGGSAYNSESLKTIIQMRSKAVDNSAEQDLQDPAKNAASETSDLTVKDEFELFRELVRTAFKHGMHSAAEKICFAMVTTKRFTYYHHEIERIMVLTCYYNDDCAIAFSYLRELIAKQPSQTTLWNMLSLMIQKGDEVRYYRYMRRLMQRHPVDTKPMRIFQGHYHLNCASFKYALNIYMPILRENPDPLVALCIAVAFNQLSLQKKVLRKSASVAQAVAFGQRYKELRSAGHELADCAAQQEIFYNIGRIYHQANILHLAVDYYEKALAVPVHPLIAEHESTLGLQHEVAFNLHLIYRANGNKWKARQYLMRYCVV”, the protein production result is reported as “failed”. In the case of “MADSIKSSNSFQKLDNIDAKETSTVDRKWVALTAYQPVDVVTKTVEVPIIKTVEKYVPKTIIQEKIIHVPKNVTHIVEKIVEVPEVKYIEKIVEVPHIHYKNKYVPKIEIVEKVVERQKIIEKWHDKIVEVPQIKEVVRFKQIEDSEEIIKYVPRNSKNIDWEDEYKKYTESKGLQRYSLDQNNIYQQANSFNQFNENAYNQNAFNRSYELLNKQSSVKSQNNASGENFSQMNFYNQYSGANFEQERSIQASNFEPSGSMQLKRLSSEEIKPAGCCSAACT”, the protein production result is “failed”.

With “MADSKSFTFELNESVLTAQVGRLDEMAMVVEQRFSELKMTIEDVGNADPGSKISESLGGLQSGLGTISSAFGQLGSSSEAITSGFGTAVGSVGGITDAFKNLGSSVQNGTLFSSLATGIGGMSTMLGGVSGGVQGITNLASGFMELKNHLGGLMSSIGGVGGIMGKLTSPMGLVIIGIVALVAAFAYLMTTNESFRNTVMSVVTQVAQLFGQLVASLMPIIMQIVTAVMQIGAALMPMVMQFISFFAQLLAQLMPFINMLISMLMPVIMQIVQVVMSLVSALLPSIMTVIQGIMSVIQFLIPIIMQIATVVVQIVVTIISYISKIMPIVMTIIGVIVSIITTIISYVVIIATTIASVIGKIISFIASVITAVIGIVQPIIAFITNIFTTIVTIIGAAFQMVFTVASKIWNSIMSTISGIIDGIKAVITGISTTVSSVFNGVKRIITGVFDGIKSAWGGLTDFVGNIFDGVSSAIQTVVDNVKGFVNVVIRGINGAIGLINKIPGVEIGKIPQLISGTTNFQGGFARMNEGGRGEMVVLPSGSQVIPHDATMKYARESARGNKSMLYTSQGADLARVENLLERLLQKNPVIKMDDKVVAEVVSRNQANSFDQYNYTMGGAAYS”, the protein production entry is “not failed”. The same measure for “MADSLAGIDQVTSLHKNNELQLLCFRLGKNKDLYAVNVFKIREVVKYHGNLTIISHENNSLVEGLIIIRELTIPLIDMKKWFYYDSQNKNKDLRPYRIEKEKGEDDIVMICEFSRWTIGVRIYEADRILSKKWTEMEQSAGLGGSAGNNKLVSRTRYFDGRLVQVVDIEKMLIDVFPWIEDEKHNDLETLSKIHSNQCVLLADDSPSVLKTMQMILDKLGVKHIDFINGKTLLEHLFNPTTDVSNIGLIITDLEMPEASGFEVIKQVKNNPLTSKIPIVVNSSMSGSSNEDMARSLKADDFISKSNPKDIQRVVKQFLELA”: “failed”. As to “MADSRQAQGPGKSVLGIGQRIVTIIVEMVETRLRLAVVELEEEKANLFQLLLMVGLTMLFAAFGLMSLMVLVIWAIDPQYRLNAMIATTVVLLVLALIGGIWTLRKARQSTLLRHTRHELANDRQILEDDQS”, the protein production entry was “failed”.

With “MADSSRADFWEQRYREGVTPWEGGQLPPRARAFFAAQRPLRVLMPGCGSAADLPPLLAMGHDVLAVDFSEAAIELAARQWPEAAGRLLLADFFQLQMPAFDCLFERAFLCALPVGMRSQYAERVAALIAPGGALAGVFFVADTERGPPFGMQAEALRELLSPWFELEEDLALDESVAVFRNRERWMVWRRRGFDLGQVSEHESTGNCGAHRKE”, the protein production result is “failed”.
